# Target: vibrillin βγ-crystallin domain (Vibrio cholerae)
# Assay: SEC
substance,measurement,value
vibrillin βγ-crystallin domain (domain or fragment),stoichiometry N,6
